The source of these data is patent publication US20220112291A1 (Pfizer, published 2022).

Assay [1] concerns the target human CD1a expressed on cells (human, UniProt P06126 17-327). In words: cell-based or functional assay.
For assay [2], the target named is T1, human single-chain CD1a-β2M recombinant protein (Human B2M-CD1a ECD-Avi-His6) (human).
T1 construct: Biotinylated in the HTRF, phage selection and Gyrolab assays; also called human CD1a; CD1a protein
In words: SPR (Biacore), IgG; antigen taken as human CD1a. In general terms: SPR reads the build-up and loss of mass on a sensor chip optically.

T1 sequence (chain, as listed by the source limits assumed): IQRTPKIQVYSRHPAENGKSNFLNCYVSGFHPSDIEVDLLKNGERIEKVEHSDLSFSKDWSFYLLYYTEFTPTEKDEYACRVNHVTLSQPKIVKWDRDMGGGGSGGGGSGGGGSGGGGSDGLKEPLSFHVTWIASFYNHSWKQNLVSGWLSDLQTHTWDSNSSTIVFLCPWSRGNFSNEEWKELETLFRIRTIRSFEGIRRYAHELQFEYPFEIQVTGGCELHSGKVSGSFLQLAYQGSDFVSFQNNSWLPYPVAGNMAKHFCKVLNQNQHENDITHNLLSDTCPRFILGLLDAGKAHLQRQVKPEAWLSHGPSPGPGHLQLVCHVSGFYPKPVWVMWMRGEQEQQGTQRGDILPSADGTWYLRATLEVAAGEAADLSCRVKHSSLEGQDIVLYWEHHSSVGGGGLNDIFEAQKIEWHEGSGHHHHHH
human CD1a expressed on cells, sequence (P06126 17-327): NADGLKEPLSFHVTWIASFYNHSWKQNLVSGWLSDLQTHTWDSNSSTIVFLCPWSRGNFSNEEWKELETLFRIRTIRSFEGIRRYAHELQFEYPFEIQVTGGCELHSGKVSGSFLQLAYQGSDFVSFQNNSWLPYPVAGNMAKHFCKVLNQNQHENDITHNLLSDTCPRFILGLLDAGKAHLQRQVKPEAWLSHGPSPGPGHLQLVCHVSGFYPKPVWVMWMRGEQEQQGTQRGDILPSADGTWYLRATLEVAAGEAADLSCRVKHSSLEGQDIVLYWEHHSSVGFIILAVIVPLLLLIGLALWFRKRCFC

B1: Ab556 (antibody, human IgG1, kappa, V domains shown)
VH: EVQLVESGGGLVQPGGSLRLSCAASGFTFTDHYMHWVRQAPGKGLEWVAFIRNSAGGYTTESNPAVKGRFTISRDNAKNSLYLQMNSLRAEDTAVYYCARETTRIPTGWFAYWGQGTLVTVSS
VL: DIQMTQSPSSLSASVGDRVTITCLASEDIYFDLAWYQQKPGKAPKLLIYGGDRLKEGVPSRFSGSGSGTDYTLTISSLQPEDFATYYCQQSESYPYTFGQGTKLEIKR
notes: Optimized variant of Ab138; human IgG1 effector null / kappa; HC with or without terminal lysine
As for B1, the “Inhibition of CD69 expression, IC50” value in assay [1] stood at 730 pM. Besides, the Kd (as a rule, the equilibrium constant for the complex coming apart) in assay [2] was 100 pM.

B2: Ab504 (antibody, human IgG1, kappa, V domains shown)
VH: EVQLVESGGGLVQPGGSLRLSCAASGFTFTDHYMHWVRQAPGKGLEWVAFIRNKAGGYTTESNPAVKGRFTISRDNAKNSLYLQMNSLRAEDTAVYYCARETTGIPTGWFAYWGQGTLVTVSS
VL: DIQMTQSPSSLSASVGDRVTITCLASEDIYFDLAWYQQKPGKAPKLLIYGGDRLKDGVPSRFSGSGSGTDYTLTISSLQPEDFATYYCQQSESYPYTFGQGTKLEIKR
notes: as for B1
Turning to B2, the “Inhibition of CD69 expression, IC50” value in assay [1] worked out at 1690 pM. Besides, the equilibrium dissociation constant (Kd) in assay [2] was 530 pM.

B3: Ab514 (antibody, human IgG1, kappa, V domains shown)
VH: EVQLVESGGGLVQPGGSLRLSCAASGFTFTDHYMHWVRQAPGKGLEWVAFIRNSAGGYTTESNPAVKGRFTISRDNAKNSLYLQMNSLRAEDTAVYYCARETTRIPTGWFAYWGQGTLVTVSS
VL: DIQMTQSPSSLSASVGDRVTITCLASEDIYFDLAWYQQKPGKAPKLLIYGASTPKDGVPSRFSGSGSGTDYTLTISSLQPEDFATYYCQQSEKYPYTFGQGTKLEIKR
notes: as for B1
B3: the “Inhibition of CD69 expression, IC50” value in assay [1] amounted to 990 pM. The Kd in assay [2] was found to be 280 pM.

B4: Ab599 (antibody, human IgG1, kappa, V domains shown)
VH: EVQLVESGGGLVQPGGSLRLSCAASGFTFTDHYMHWVRQAPGKGLEWVGHISGSAGGYTTESNPAVKGRFTISRDNAKNSLYLQMNSLRAEDTAVYYCARETTRIPTGWFAYWGQGTLVTVSS
VL: DIQMTQSPSSLSASVGDRVTITCLASEDIYFDLAWYQQKPGKAPKLLIYGGDRLKEGVPSRFSGSGSGTDYTLTISSLQPEDFATYYCQQSESYPYTFGQGTKLEIKR
notes: as for B1
With B4, in assay [1], the “Inhibition of CD69 expression, IC50” value was 300 pM and the “Inhibition of IL-2 production, IC50” value came out at 80 pM. In addition, in assay [2], the Kd was 520 pM.

B5: Ab559 (antibody, human IgG1, kappa, V domains shown)
VH: EVQLVESGGGLVQPGGSLRLSCAASGFTFTDHYMHWVRQAPGKGLEWVAFIRNKAGGYTTESNPAVKGRFTISRDNAKNSLYLQMNSLRAEDTAVYYCARETTTIPTGWFAYWGQGTLVTVSS
VL: DIQMTQSPSSLSASVGDRVTITCLASEDIYFDLAWYQQKPGKAPKLLIYGGDRLKEGVPSRFSGSGSGTDYTLTISSLQPEDFATYYCQQSYSYPYTFGQGTKLEIKR
notes: as for B1
As to B5, the “Inhibition of CD69 expression, IC50” value in assay [1] is 1290 pM. The Kd in assay [2] stood at 390 pM.

B6: Ab492 (antibody, human IgG1, kappa, V domains shown)
VH: EVQLVESGGGLVQPGGSLRLSCAASGFTFTDHYMTWVRQAPGKGLEWVAFIRNKANGYTTESNPAVKGRFTISRDNAKNSLYLQMNSLRAEDTAVYYCARETTGIPTGWFAYWGQGTLVTVSS
VL: DIQMTQSPSSLSASVGDRVTITCLASEDIYFDLAWYQQKPGKAPKLLIYGGDRLKEGVPSRFSGSGSGTDYTLTISSLQPEDFATYYCQQSESYPYTFGQGTKLEIKR
notes: as for B1
On to B6, for which the “Inhibition of CD69 expression, IC50” value in assay [1] was determined as 1180 pM. Also, in assay [2], the Kd was determined as 770 pM.

B7: Ab560 (antibody, human IgG1, kappa, V domains shown)
VH: EVQLVESGGGLVQPGGSLRLSCAASGFTFTDHYMHWVRQAPGKGLEWVAFIRNKAGGYTTESNPAVKGRFTISRDNAKNSLYLQMNSLRAEDTAVYYCARETTTIPTGWFAYWGQGTLVTVSS
VL: DIQMTQSPSSLSASVGDRVTITCLASEDIYFDLAWYQQKPGKAPKLLIYGGDRLKEGVPSRFSGSGSGTDYTLTISSLQPEDFATYYCQQSESYPYTFGQGTKLEIKR
notes: as for B1
With B7, in assay [1], the “Inhibition of CD69 expression, IC50” value turned out to be 1610 pM. Also, the Kd in assay [2] stood at 350 pM.

B8: Ab491 (antibody, human IgG1, kappa, V domains shown)
VH: EVQLVESGGGLVQPGGSLRLSCAASGFTFTDHYMTWVRQAPGKGLEWVAFIRNKANGYTTESNPAVKGRFTISRDNAKNSLYLQMNSLRAEDTAVYYCARETTGIPTGWFAYWGQGTLVTVSS
VL: DIQMTQSPSSLSASVGDRVTITCLASEDIYFDLAWYQQKPGKAPKLLIYGGDRLKEGVPSRFSGSGSGTDYTLTISSLQPEDFATYYCQQSYSYPYTFGQGTKLEIKR
notes: as for B1
B8: the “Inhibition of CD69 expression, IC50” value in assay [1] came to 1180 pM. The Kd in assay [2] worked out at 620 pM.

B9: Ab585 (antibody, human IgG1, kappa, V domains shown)
VH: EVQLVESGGGLVQPGGSLRLSCAASGFTFTDHYMHWVRQAPGKGLEWVGHISGSAGGYTTESNPAVKGRFTISRDNAKNSLYLQMNSLRAEDTAVYYCARETTRIPTGWFAYWGQGTLVTVSS
VL: DIQMTQSPSSLSASVGDRVTITCLASEDIYFDLAWYQQKPGKAPKLLIYGASTPKDGVPSRFSGSGSGTDYTLTISSLQPEDFATYYCQQSEKYPYTFGQGTKLEIKR
notes: as for B1
On to B9, for which, in assay [1], the “Inhibition of CD69 expression, IC50” value was found to be 380 pM and the “Inhibition of IL-2 production, IC50” value was found to be 140 pM. In addition, in assay [2], the Kd came to 320 pM.

B10: Ab572 (antibody, human IgG1, kappa, V domains shown)
VH: EVQLVESGGGLVQPGGSLRLSCAASGFTFTDHYMTWVRQAPGKGLEWVAFIRNKAGGYTTESNPAVKGRFTISRDNAKNSLYLQMNSLRAEDTAVYYCARETTGIPTGWFAYWGQGTLVTVSS
VL: DIQMTQSPSSLSASVGDRVTITCLASEDIYFDLAWYQQKPGKAPKLLIYGGDRLKEGVPSRFSGSGSGTDYTLTISSLQPEDFATYYCQQSESYPYTFGQGTKLEIKR
notes: as for B1
Regarding B10, the “Inhibition of CD69 expression, IC50” value in assay [1] amounted to 850 pM. Moreover, in assay [2], the Kd amounted to 390 pM.

B11: Ab579 (antibody, human IgG1, kappa, V domains shown)
VH: EVQLVESGGGLVQPGGSLRLSCAASGFTFTDHYMTWVRQAPGKGLEWVAFIRNSAGGYTTESNPAVKGRFTISRDNAKNSLYLQMNSLRAEDTAVYYCARETTRIPTGWFAYWGQGTLVTVSS
VL: DIQMTQSPSSLSASVGDRVTITCLASEDIYFDLAWYQQKPGKAPKLLIYGGDRLKEGVPSRFSGSGSGTDYTLTISSLQPEDFATYYCQQSYSYPYTFGQGTKLEIKR
notes: as for B1
For B11, the “Inhibition of CD69 expression, IC50” value in assay [1] was determined as 730 pM. The Kd in assay [2] is 270 pM.

B12: Ab555 (antibody, human IgG1, kappa, V domains shown)
VH: EVQLVESGGGLVQPGGSLRLSCAASGFTFTDHYMHWVRQAPGKGLEWVAFIRNSAGGYTTESNPAVKGRFTISRDNAKNSLYLQMNSLRAEDTAVYYCARETTRIPTGWFAYWGQGTLVTVSS
VL: DIQMTQSPSSLSASVGDRVTITCLASEDIYFDLAWYQQKPGKAPKLLIYGGDRLKEGVPSRFSGSGSGTDYTLTISSLQPEDFATYYCQQSYSYPYTFGQGTKLEIKR
notes: as for B1
Turning to B12, the “Inhibition of CD69 expression, IC50” value in assay [1] stood at 990 pM. For the same molecule, the Kd in assay [2] worked out at 270 pM.

B13: Ab609 (antibody, human IgG1, kappa, V domains shown)
VH: EVQLVESGGGLVQPGGSLRLSCAASGFTFEDHYMHWVRQAPGKGLEWVAHTRDKAGGYTTESNPAVKGRFTISRDNAKNSLYLQMNSLRAEDTAVYYCARETTRIPTGWFAYWGQGTLVTVSS
VL: DIQMTQSPSSLSASVGDRVTITCLASEDIYFDLAWYQQKPGKAPKLLIYGGDRLKEGVPSRFSGSGSGTDYTLTISSLQPEDFATYYCQQSESYPYTFGQGTKLEIKR
notes: as for B1
For B13, in assay [1], the “Inhibition of CD69 expression, IC50” value worked out at 390 pM and the “Inhibition of IL-2 production, IC50” value was found to be 120 pM. Also, in assay [2], the Kd was 560 pM.
